# ± gives the uncertainty stated by the source.
# Test: amyloid nucleation score (Sup35N fusion, yeast selection) (log enrichment); library NNK1; higher = more nucleation; inactive = no reads after selection
# Method in brief: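 Nucleation score is defined as the DiMSum log enrichment of output over input reads, with centring on the mode score of non-aggregating sequences. A minimum of 100 input reads was required for each sequence. Reads came from Illumina sequencing of plasmid inserts from psi-negative yeast expressing Sup35N fused to peptides of 20 random codons, induced with 100 μM copper sulfate for 24 hours and grown 7 days at 30°C on medium lacking adenine and uracil.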
row,Substance,amyloid nucleation score
1,NFFYT,-0.758 ± 1.1
2,NFGLPMYYFANDLESTDVVS,-0.115 ± 1.4
3,NFKNRPSRLSRSNRSLFSTG,-0.887 ± 0.85
4,NFLLTRPAAHELC,inactive
5,NFLPVLVCQPLSWLLIPLLY,0.309 ± 0.31
6,NFMIMKSCDRSSLCHFMSYC,7.436 ± 0.069
7,NFNRRRLCIIMKFDDPPLHG,0.102 ± 0.24
8,NFRAWS,0.129 ± 0.93
9,NFRHFILVYLMPFT,inactive
10,NFRLEYDLCVGLTSSHIGGL,-0.219 ± 0.48
11,NFSYMLLLAPSKVTRAGCFV,-0.134 ± 1.3
12,NGFLHIRLRISALCELL,0.137 ± 0.57
13,NGFSYVCFNGFQLMCLDSIM,7.779 ± 0.044
14,NGHHALLYMPFAQTC,-0.745 ± 1.2
15,NGLFIRYSVVMAYSELEVVG,-0.162 ± 0.7
16,NGLSMSLSCRYTLWVIFFSF,-0.157 ± 1.2
17,NGMSSFRCLYMWARTFPVSN,-0.424 ± 0.99
18,NGMVTLYR,0.977 ± 0.55
19,NGRFSADS,-1.77 ± 1.6
20,NGSSLVANELRVWIVSSFML,-0.59 ± 0.64
21,NGTAVCLVRSLVYAHHGRQG,0.481 ± 0.38
22,NGVVLLFFSDSADMRLCAAM,0.319 ± 0.58
23,NGWILNLVWTVKNTSMTLIW,0.678 ± 0.51
24,NGYYRLSWIKWVQKDGRVRR,0.598 ± 1
25,NHCSLFCAFSW,1.86 ± 0.67

row,Substance,amyloid nucleation score
1,NIFWST,0.361 ± 0.78
2,NIGVMVLVLDARKDKRFGKI,7.65 ± 0.082
3,NIIDVTSDSCKPYHILEAIV,0.015 ± 0.34
4,NILMFEMVVRSFIGLTEKFL,0.69 ± 1
5,NINYLFVLYMDGSCMYWRAL,6.354 ± 0.049
6,NISDTIC,0.474 ± 0.85
7,NISVVGSSING,0.713 ± 0.23
8,NKEVNYTNIINCVGIRGCRL,4.77 ± 0.051
9,NKKKSLRWKGTGNGVPLVVQ,-0.399 ± 0.86
10,NKLAHSNVDKAKLRDNPQAG,-0.407 ± 1
11,NKLRGGVGERSVLQGWIEED,-0.052 ± 0.53
12,NKMGFSRCSLQGDVKFF,-0.482 ± 0.51
13,NKRTLLVVY,-1.19 ± 0.81
14,NKSCDGVRLCREARKALEPC,0.34 ± 0.52
15,NKYVVETDH,-0.604 ± 1.1
16,NLASNVRESVGSGIYLMNIS,1.97 ± 0.6
17,NLEWGLYISTANCPRNYDKA,inactive
18,NLFLVIPAFDLLMFGSERSS,5.55 ± 0.063
19,NLGAMWLNVVPVYLKWVAL,-0.095 ± 0.32
20,NLGFTRSPHAETSLFTH,0.235 ± 0.47
21,NLGYDCGLGAMSGWMRWLIS,0.459 ± 0.64
22,NLPVGLEAM,-0.327 ± 0.62
23,NLRHALRMVTNGLSCTRKHG,-0.278 ± 0.43
24,NLRIGFVEQLSSGVLDGPDD,0.471 ± 0.97
25,NLRYYQFRSRSPTAWGHTMF,-0.744 ± 0.58

row,Substance,amyloid nucleation score
1,NLSIYIYSNNLLLNVF,6.194 ± 0.052
2,NLSQSLVHRVSSVEYTLRLL,inactive
3,NLVAT,1.09 ± 0.67
4,NLWKVFCSCLNRDMKALGNW,-1.04 ± 0.51
5,NMDRVSFLR,-0.062 ± 0.6
6,NMLFLSRGDP,-0.499 ± 1.9
7,NMRYHGISCRYRKYYFRWLD,-0.261 ± 0.31
8,NMSLSWRTNRYAWPMVCLIR,0.182 ± 0.23
9,NMVSCGDALR,-0.554 ± 1.7
10,NMYNVRLFVPHFSLECLTWY,2.87 ± 0.12
11,NNACMSSYVVGYRSIVMVK,0.558 ± 1.1
12,NNDINFSDLFRCGERTYVFW,2.24 ± 0.18
13,NNGAVVSGS,-0.046 ± 0.25
14,NNKSEVF,1.46 ± 0.74
15,NNPDTMSI,0.44 ± 0.56
16,NNSSIVFLW,-0.057 ± 1.4
17,NNYYA,-0.616 ± 0.52
18,NPGRLRFTGTMRRTQKIEVA,-0.876 ± 0.49
19,NPHEDRGLESQSAPGGRKWR,1.74 ± 0.64
20,NPVGSSRVVYRAPNHVIV,1.18 ± 0.58
21,NRFNRYNVFPVYDQNLESPL,0.205 ± 0.38
22,NRIISLCSLSCDYLNLDWCI,7.13 ± 0.08
23,NRLATLVDVTVMQSNTFELL,0.748 ± 0.35
24,NRLIGGLFSCVCTADQSTHS,8.419 ± 0.047
25,NRSYNN,-0.243 ± 0.29

row,Substance,amyloid nucleation score
1,NRTDKKDTLRWLFPT,0.435 ± 0.81
2,NSDGSLSKTRKRAGAQVSRQ,0.312 ± 1.1
3,NSITAQRVWVPPFVCLGDRY,0.146 ± 0.44
4,NSKRTGASLRIELRLQFRKR,-0.215 ± 0.39
5,NSSYTCPNFRHTFCRYICYA,0.533 ± 0.27
6,NSWRRE,1.02 ± 0.93
7,NSYFWSGEIIIEYQRP,-1.23 ± 0.65
8,NTKELVYKMGCGVRYHGKWG,1.28 ± 0.71
9,NTLTMIHLIVLTELSLFK,0.297 ± 0.26
10,NTRYYFENNMR,-0.599 ± 0.4
11,NTSSFVSTNWSGFPWSGSRY,2.02 ± 0.24
12,NTTYQTYR,4.31 ± 0.074
13,NTVFL,0.549 ± 0.39
14,NTVIVPHLIILLDYSKVWAE,3.28 ± 0.069
15,NVANVV,-0.013 ± 1.2
16,NVDKHVWFGGVIVVNLWHIR,6.827 ± 0.054
17,NVGRHV,0.151 ± 0.9
18,NVHVFRNRSEITFKRASSWE,1.08 ± 0.9
19,NVKPSDDNVSLRNYGIRYLE,-0.29 ± 1.1
20,NVLWIPSSGISSVRLEGIAM,0.393 ± 0.46
21,NVMSSPCIRVGMLRMGVTKS,1.62 ± 0.51
22,NVTFEADLQLLCSRCSWFGT,3.17 ± 0.061
23,NVTFHSRSGV,-0.316 ± 0.84
24,NVVAYTCNFFCDGSLSGYLC,0.784 ± 0.41
25,NVYKFCDRAGLCAVGYYLGT,3.02 ± 0.081

row,Substance,amyloid nucleation score
1,NWFTSMRGLYVSLWYRMKKG,inactive
2,NWILSLAGFYRSSKVSSCTT,0.41 ± 0.67
3,NWNVGTQTKHVDNFLHKVIN,-0.315 ± 0.74
4,NWRFGLYSHIGIWLMVKS,1.86 ± 0.38
5,NWSCTYRMVVS,-0.598 ± 0.22
6,NWVGGYTEIALLA,-0.344 ± 0.78
7,NYASKLYFFLVVMSRFNRKG,-0.115 ± 1.7
8,NYGAFY,-0.13 ± 0.63
9,NYIMTRHPPLGISLPEVGRS,-0.81 ± 0.85
10,NYLERHMQHPMRTHVFRGQL,0.129 ± 0.72
11,NYLLWVQVWCRDWGNWGIMG,1.41 ± 0.81
12,NYRQHHKTSRVLRLDVGTEP,-0.252 ± 0.3
13,NYSEPDFKFHCVYGVYAMWG,0.403 ± 0.88
14,NYTVRENGSK,-0.127 ± 0.27
15,NYVSLGDVKRRMPGLFELTA,0.048 ± 0.43
16,PANIVAFGGLMSIPLVLPVL,-0.104 ± 0.4
17,PCSSVLLEHWSRYASRCEMV,1.28 ± 0.58
18,PCWGGTLGSVKLVVSSSA,inactive
19,PFEYLVRLIYCEDVAYLGTG,-0.148 ± 0.62
20,PFHGFGR,-1.04 ± 0.53
21,PFLQQNKIFNGLYEMTNWVA,inactive
22,PFLYIDSF,-1.2 ± 1.9
23,PFNKKFRYVMPRLQRTHVFM,inactive
24,PFTYYFEVQLILRKT,0.773 ± 0.79
25,PFVLYWGKLSYYDAD,0.707 ± 0.55

row,Substance,amyloid nucleation score
1,PFYLEARKVDEVMSLTYIV,-0.693 ± 0.67
2,PGLDFLGLLHQLISVFAIRL,0.111 ± 0.48
3,PGRSSRLR,-0.071 ± 1.1
4,PGSCFVMCCDLDKRKGSADE,-0.559 ± 0.62
5,PGVSDPYLDECKVTFKI,0.715 ± 0.31
6,PGYQTSWWYMLKCKTSSLNY,0.468 ± 0.47
7,PIFKMDCGDMVCT,0.121 ± 0.22
8,PIHGISFFDAYNL,-0.128 ± 1.4
9,PIHYEPSKAVYYTQFRGGMG,-0.184 ± 0.42
10,PIKVMIFVCNGFRKWHLMQH,0.268 ± 1.1
11,PKMPGMVYDTPN,-1.49 ± 2.4
12,PKSIGAFLTCHISRHVYYVI,1.08 ± 0.66
13,PLCHWKA,-0.325 ± 0.53
14,PLCLNRVMISAMGVRVR,-0.285 ± 0.73
15,PLNHNSY,1.47 ± 0.51
16,PLNSRTCGPFARSSIWDWDT,0.937 ± 0.9
17,PLTLFYLLNTHAVEFSKVNC,-0.674 ± 0.47
18,PLVFCIITGPCV,-0.468 ± 0.55
19,PLYGC,0.634 ± 0.72
20,PLYKAVLTDK,inactive
21,PMTTWYSVFCAEFL,0.688 ± 0.32
22,PNAVCGQWFEDQL,-0.269 ± 0.94
23,PNDPGKLSHGVSVVLYFDEL,1.5 ± 0.39
24,PNIRHYVYNHN,inactive
25,PNYHGVRGM,-0.086 ± 1.2

row,Substance,amyloid nucleation score
1,PPFDSDKA,0.335 ± 0.77
2,PQRRSHREKA,-0.557 ± 0.62
3,PQVGRAYNGGAGFLKYSTWD,0.229 ± 0.51
4,PRCSMRLLGYTPIYDGKS,-0.781 ± 1.1
5,PRDASWRTFVAKA,-0.026 ± 1.7
6,PRELEKFTLQKSGLHPWISL,-0.686 ± 1.4
7,PRLYGISRKSYVLSIFDVVS,0.245 ± 0.21
8,PRNPMRSESILFCGNFVGRK,-0.759 ± 0.59
9,PRYNCYQQHEVALDFSSLRC,-0.297 ± 0.54
10,PSFSDLSHALGSSLESWGYR,0.021 ± 0.8
11,PSNLRDWHSSQFNREEEDAY,0.467 ± 0.46
12,PSRATYCRGSMIHLIFDWIT,0.955 ± 0.54
13,PSRVKLKISKLL,-0.647 ± 0.94
14,PSTPQSHKMMGYRFRDRTGW,-1.03 ± 2.7
15,PSTTLFWLVMRKHILQHTRR,-0.215 ± 0.28
16,PTGNGKLFSGKYYPYDVRRS,-0.169 ± 0.29
17,PTGVMM,-0.338 ± 0.51
18,PTLVRECFEALSVSDYPVPG,-0.674 ± 1.7
19,PTMLKNRGVLSQPHIIFSYR,-0.333 ± 0.34
20,PTVLTVLFNRPFRSCN,-0.178 ± 0.61
21,PTYIKLILTAHYLSEFRSNV,1.02 ± 0.17
22,PVAVVGILHPVFDRRPMRTV,-0.031 ± 0.89
23,PVFCPRV,-1.55 ± 1.3
24,PVGNPLD,-0.039 ± 0.18

# Reference: the supplement of paper PMC12042874
